Results: paper PMC9108885 (The Journal of Biological Chemistry, 2022)

Biological target: human α-synuclein (human, UniProt P37840 1-140, biotin (for BLI, sites not stated); 15N-labelled (for NMR))
Assay: BLI

B1: mouse nicotinamide mononucleotide adenylyltransferase 3 (enzyme)
chain: MKNRIPVVLLACGSFNPITNMHLRLFEVARDHLHQTGRYQVIEGIISPVNDSYGKKDLVASHHRVAMARLALQTSDWIRVDPWESEQAQWMETVKVLRHHHRELLRSSAQMDGPDPSKTPSASAALPELKLLCGADVLKTFQTPNLWKDTHIQEIVEKFGLVCVSRSGHDPERYISDSPILQQFQHNIHLAREPVLNEISATYVRKALGQGQSVKYLLPEAVITYIRDQGLYINDGSWKGKGKTG
B1 showed a Kd of 1.9 ± 0.03 µM.
